Where no end group is shown, it is not given here.
Key:
[1] = background description of the marketed drug; cited from earlier work
[2] = target: T1, HLA-B*39:01 and β2-microglobulin (Homo sapiens, UniProt P01889, A182T/A93T/A95T/C349S/D138N/D201E/E176V/E187T/E204Q/K202T/Q94N/R155S/R180L/S121R/Y140F/Y91C); assay: Refolding of HLA complexes with synthetic peptides, G200 superdex chromatography (OD280); type: binding; conditions: for binding to HLA-B*39:01 (results of the studies taken together): overall conclusion of Example 2, Tables 6 and 7 and FIGS. 2-4; for peptide binding and proper refolding of HLA-B*39:01 (peak in chromatogram): FIG. 2A-2D, FIG. 3
T1 construct: made in house; host or cells: E. coli
Protocol: (§1) Refolding, characterization and purification of HLA complexes was performed as described (PMID: 12220628). Briefly, HLA-B*39:01 and β2-microglobulin were expressed in E. coli. Inclusion bodies were isolated, denatured in 8 M Urea and mixed with synthetic peptides derived from infliximab (Genscript) at a final concentration of 0.2 mg per ml protein, 6 M Urea, 20 mM Tris pH 8.0, 1 mM GSH, 10 mM GSSH for 24 hours, then dialyzed against 10 mM Tris pH 8.0 for 3 days. Samples concentrated to reduce the volume 10 fold, then loaded on a G200 superdex column calibrated with standards (http://www.bio-rad.com/webroot/web/pdf/1sr/literature/MSLIT-102E.pdf) in 10 mM Tris, 150 mM NaCl, at 0.75 ml per minute. OD280 was recorded for chromatographic analysis.
(§2) Results of the study are provided in FIGS. 2-4 and in Tables 6 and 7. In Tables 6 and 7, the IC50 (nM) for each peptide binding to HLA-B*39:01, HLA-B*05:01, HLA-B*35:01, or HLA-B*57:01 are shown in nM. […] In each of FIG. 2A-2D, the dotted line arrow points to the peak (or lack of a peak, for FIG. 2D) indicating peptide binding and proper refolding. […] The dotted line arrow points to the peak (or lack of a peak) indicating peptide binding and proper refolding. […] FIGS. 5A and 5B show an exemplary crystal structure of infliximab.

other HLAs = assay: Peptide binding to other HLAs (overall conclusion of Example 2); parameters: species or system human
Protocol: A study was conducted to identify interactions between peptides present on the infliximab antibody and HLA-B*39:01. Peptides corresponding to heavy and light chain sequences of infliximab (chain H and L in PDB code 4G3Y) were predicted to bind class I HLA molecules based on the Stabilized matrix method (SMM) implemented in Immune Epitope Database and Analysis Resource (IEDB). Peptides predicted to bind with estimated Kd values less than 0.5 μM were considered candidate binders for: HLA-B*39:01, HLA-B*15:01, HLA-B*35:01, and HLA-B*57:01.
as §1, §2

[3] = HLA analysis of infliximab-DILI cases vs. matched controls and reference populations; type: in vivo, human; conditions: for OR vs. Ref 2 / OR vs. Ref 1 / OR vs. Control / OR: DILI after infliximab; for OR vs. Control: 25 Caucasian cases vs 60 controls; for OR: cases vs controls
Protocol: Samples from 25 Caucasians, 3 Africans, and 3 outliers subjects that had been treated with infliximab and had experienced DILI were obtained. These are referred to as “cases” here. These samples were compared to a set of 60 matched Caucasian and 6 matched African controls. […] The controls were matched for age, sex, ethnicity, and BMI where possible. Statistical analyses were performed to identify from these cases HLA alleles that are risk factors for the development of DILI following infliximab exposure. Significant alleles were determined using Fisher's Exact Test (FET) (p<0.05).
As a secondary comparison, the HLA profiles of the 25 Caucasian cases were compared to reference populations available at www.allelefrequencies.net. For calculating population presence rates, reference list entries were found by searching for “Caucasoid” ethnic origin subjects of gold-standard studies involving ≥100 subjects for alleles of interest on allelefrequencies.net. Sample sizes for the references represent the reported number of subjects directly typed for a given locus (i.e. USA NMDP European Caucasian reports 1,242,890 subjects typed for HLA-B and DRB1, but only 395,676 subjects typed for HLA-C; see Table 3).
In order to test for significant differences between the 31 Infliximab-DILI cases and the reference populations using Fisher's Exact Test (FET), counts of individuals carrying at least one copy of the allele in question were calculated one of two ways. If the population presence rate was available, the number of individuals was estimated by rounding the product of the population presence rate and the sample size for that HLA locus in that study. If no population presence rate was available, this number was estimated using the allele frequency rate and assuming Hardy-Weinberg equilibrium (HWE). That is, if the allele frequency is p, the number of individuals with the allele in question were calculated as [p^2+2*p*(1−p)]*Nsamples, where p^2+2*p*(1−p) represents the percentage of carriers if HWE is assumed, and N samples is the reference sample size for that locus.
The data sets individually analyzed were: Caucasian typed and/or Caucasian imputed; African typed and/or African imputed; and All Ethnicities typed and/or All Ethnicities imputed. “Typed only” means that only subjects with directly typed HLA alleles were considered in the indicated analysis. “Imputed only” means that only the imputed alleles (i.e., the subject's HLA profile was determined using known proxies for HLA subtypes in their genetic sequence) for each subject were used in the indicated analysis. “Imputed+Typed” means that all subjects were considered; here, directly typed HLA alleles were used if available, otherwise, imputed alleles were used.

## golimumab: TNF blocker
[1]
  hepatic adverse reactions reported in patients: reports of severe hepatic reactions including acute liver failure

## ENTYVIO: integrin receptor antagonist for ulcerative colitis or Crohn's disease
[1]
  hepatic adverse reactions reported in patients: reports of elevations of transaminase and/or bilirubin

## YSLSSTLTL [SEQ ID NO: 5, YSLSSTLTL]
[2]
  binding to HLA-B*39:01 (results of the studies taken together): bind to HLA-B*39:01 at significant levels
Other HLAs
  binding to other HLAs (results of the studies taken together): not to other HLAs

## Certolizumab: anti-TNF antibody used for the treatment of autoimmune diseases
[1]
  hepatic adverse reactions reported in patients: Elevated liver enzymes and hepatitis have been reported

## ACEVTHQGL [SEQ ID NO: 12]
[2]
  peptide binding and proper refolding of HLA-B*39:01 (peak in chromatogram): lack of binding
  binding to HLA-B*39:01 (results of the studies taken together): does not bind

## ZINBRYTA: CD25 (IL-2 receptor)-specific antibody used to treat multiple sclerosis
[1]
  hepatic adverse reactions reported in patients: can cause severe liver injury, including autoimmune hepatitis and liver failure

## GAZYVA: CD20-directed cytolytic antibody
[1]
  hepatic adverse reactions reported in patients: Hepatic enzyme elevations have occurred in CLL patients

## STSGGTAAL [SEQ ID NO: 11, infliximab heavy chain peptide]
[2]
  binding to HLA-B*39:01 (results of the studies taken together): bind to HLA-B*39:01 at significant levels
Other HLAs
  binding to other HLAs (results of the studies taken together): not to other HLAs

## CQQSHSWPF [SEQ ID NO: 9, CQQSHSWPF]
[2]
  binding to HLA-B*39:01 (results of the studies taken together): bind to HLA-B*39:01 at significant levels
Other HLAs
  binding to other HLAs (results of the studies taken together): not to other HLAs

## LQSSGLYSL [SEQ ID NO: 10, LQSSGLYSL]
[2]
  binding to HLA-B*39:01 (results of the studies taken together): bind to HLA-B*39:01 at significant levels
Other HLAs
  binding to other HLAs (results of the studies taken together): not to other HLAs

## TQSPAILSV [SEQ ID NO: 6, TQSPAILSV]
[2]
  binding to HLA-B*39:01 (results of the studies taken together): bind to HLA-B*39:01 at significant levels
Other HLAs
  binding to other HLAs (results of the studies taken together): not to other HLAs

## Guselkumab: IL-23 blocker
[1]
  hepatic adverse reactions reported in patients: Elevated liver enzymes have been reported

## TYSABRI: integrin receptor antagonist indicated for multiple sclerosis and Crohn's disease
[1]
  hepatic adverse reactions reported in patients: Significant liver injury, including liver failure requiring transplant, has occurred in patients

## STYSLSSTL [SEQ ID NO: 7, infliximab light chain peptide]
[2]
  binding to HLA-B*39:01 (results of the studies taken together): bind to HLA-B*39:01 at significant levels
Other HLAs
  binding to other HLAs (results of the studies taken together): not to other HLAs

## VQWKVDNAL [SEQ ID NO: 8, VQWKVDNAL]
[2]
  binding to HLA-B*39:01 (results of the studies taken together): bind to HLA-B*39:01 at significant levels
Other HLAs
  binding to other HLAs (results of the studies taken together): not to other HLAs

## THQGLSSPV [SEQ ID NO: 1, THQGLSSPV]
[2]
  peptide binding and proper refolding of HLA-B*39:01 (peak in chromatogram): binding
  binding to HLA-B*39:01 (results of the studies taken together): bind to HLA-B*39:01 at significant levels
Other HLAs
  binding to other HLAs (results of the studies taken together): not to other HLAs

## ACTEMRA: interleukin-6 (IL-6) receptor antagonist
[1]
  hepatic adverse reactions reported in patients: Serious cases of hepatic injury have been observed

## Infliximab: mouse-human chimeric monoclonal antibody that binds to human tumor necrosis factor (TNF)
[3]; B*39:01, 25 Caucasian cases vs England Northwest
  OR vs. Ref 2: 13.72
[3]; B*39:01, 25 Caucasian cases vs USA NMDP European Caucasian
  OR vs. Ref 1: 8.33
[3]; C*12:03, 25 Caucasian cases vs UK Pop 3
  OR vs. Ref 2: 4.56
[3]; C*12:03, 25 Caucasian cases vs USA NMDP European Caucasian
  OR vs. Ref 1: 3.02
[3]; DQA1*3:03
  OR vs. Control: 18.82
[3]; DQA1*3:03, 25 Caucasian cases vs Netherlands pop 2
  OR vs. Ref 2: 0.87
[3]; DQA1*3:03, 25 Caucasian cases vs USA Caucasian Bethesda
  OR vs. Ref 1: 0.92
[3]; DQB1*02:01
  OR vs. Control: 4.93
[3]; DQB1*02:01, 25 Caucasian cases vs USA Philadelphia Caucasian
  OR vs. Ref 2: 3.57
[3]; DQB1*02:01, 25 Caucasian cases vs USA San Antonio Caucasian
  OR vs. Ref 1: 2.54
[3]; DRB1*03:01
  OR vs. Control: 4.24
[3]; DRB1*03:01, 25 Caucasian cases vs USA NMDP European Caucasian
  OR vs. Ref 1: 2.25
[3]; DRB1*03:01, 25 Caucasian cases vs USA Philadelphia Caucasian
  OR vs. Ref 2: 3.57
[3]; HLA-A*02:01, African imputed + typed
  OR: 91.00
[3]; HLA-B*39:01, Caucasian imputed + typed
  OR: 25.33
[3]; HLA-C*07:01, All ethnicities imputed + typed
  OR: 2.77
[3]; HLA-C*12:03, Caucasian imputed + typed
  OR: 5.85
[3]; HLA-DPB1*04:02, African imputed + typed
  OR: 25.67
[3]; HLA-DQA1*03:01, All ethnicities imputed + typed
  OR: 0.28
[3]; HLA-DQA1*03:03, All ethnicities imputed + typed
  OR: 16.33
[3]; HLA-DQB1*02:01, All ethnicities imputed + typed
  OR: 5.21
[3]; HLA-DRB*03:01, All ethnicities imputed + typed
  OR: 4.50
[3]; in words
  risk of DILI following infliximab administration in subjects with HLA-B*39:01: associated with a higher risk of DILI
[1]
  hepatic adverse reactions reported in patients: known to cause hepatotoxicity, and even severe hepatic reactions that can be fatal or necessitate a liver transplant

## TKGPSVFPL [SEQ ID NO: 2, TKGPSVFPL]
[2]
  peptide binding and proper refolding of HLA-B*39:01 (peak in chromatogram): binding
  binding to HLA-B*39:01 (results of the studies taken together): bind to HLA-B*39:01 at significant levels
Other HLAs
  binding to other HLAs (results of the studies taken together): not to other HLAs

Reference: patent US20220062372A1, “METHODS FOR TREATING DISEASE AND REDUCING DRUG-INDUCED LIVER INJURY IN PATIENT POPULATIONS” (Ten Peaks LLC, priority 2020, published 2022)
